Experimental data reported in patent US20140087995A1 (published 2014).
Numbered stars: 1 amine (or outer) side, 2 acyl side, 3 side chain; on linkers, the order of the positions; unused ones are H or OH. Bridge positions count the residues as written; N and C are the ends. Side chains are listed from the residue outwards. Ends that are not written are not given here. * marks the point of attachment. C20 diacid = O=C(O)CCCCCCCCCCCCCCCCCCC(=O)*; γGlu = O=C(O)[C@H](CCC(=O)[*:2])N[*:1]; AEEA = NCCOCCOCC(=O)O

Key:
[1] = biological target: T1, rat calcitonin receptor (rat, UniProt P32214 25-516); assay: ratio of IC50 on rat calcitonin receptor to IC50 on rat amylin receptor (reference m40)
T1 construct: whole, on cells; Membranes of transiently transfected BHK tk'ts 13 cells; also called rCTR; rat calcitonin (a) receptor
T1 sequence (looked up): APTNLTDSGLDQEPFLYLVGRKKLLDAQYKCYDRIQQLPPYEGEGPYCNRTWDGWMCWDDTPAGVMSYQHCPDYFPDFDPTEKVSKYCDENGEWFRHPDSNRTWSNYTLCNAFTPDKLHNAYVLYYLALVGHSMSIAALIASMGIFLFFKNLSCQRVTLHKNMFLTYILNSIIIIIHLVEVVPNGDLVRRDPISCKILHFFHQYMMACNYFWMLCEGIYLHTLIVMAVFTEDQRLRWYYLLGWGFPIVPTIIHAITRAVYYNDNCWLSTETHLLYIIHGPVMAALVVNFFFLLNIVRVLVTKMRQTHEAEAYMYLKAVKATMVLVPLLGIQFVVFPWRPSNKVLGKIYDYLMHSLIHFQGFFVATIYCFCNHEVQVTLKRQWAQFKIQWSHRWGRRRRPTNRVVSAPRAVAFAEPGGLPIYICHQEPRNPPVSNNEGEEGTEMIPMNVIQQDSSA

[2] = biological target: T2, human calcitonin receptor (human, UniProt P30988 25-474); assay: ratio of IC50 on human calcitonin receptor to IC50 on human amylin receptor (reference m42), SPA competition
T2 construct: whole, on cells; Membranes of stably transfected cells; also called hCTR; hCT
T2 sequence (looked up): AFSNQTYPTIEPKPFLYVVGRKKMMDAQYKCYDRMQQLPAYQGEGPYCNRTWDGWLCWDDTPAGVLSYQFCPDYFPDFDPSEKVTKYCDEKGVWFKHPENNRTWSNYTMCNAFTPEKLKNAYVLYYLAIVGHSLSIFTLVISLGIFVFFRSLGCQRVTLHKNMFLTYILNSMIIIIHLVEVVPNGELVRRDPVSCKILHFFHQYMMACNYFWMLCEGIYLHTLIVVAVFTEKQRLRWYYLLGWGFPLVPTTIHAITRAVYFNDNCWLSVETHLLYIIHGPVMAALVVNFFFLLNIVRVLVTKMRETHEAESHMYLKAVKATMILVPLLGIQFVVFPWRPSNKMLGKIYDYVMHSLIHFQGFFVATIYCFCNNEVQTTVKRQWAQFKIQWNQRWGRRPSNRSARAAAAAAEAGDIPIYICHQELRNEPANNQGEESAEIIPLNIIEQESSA
Protocol: The resulting pellet was resuspended, homogenized and centrifuged (20.000 rpm, 15 min) in a buffer containing 20 mM Na-HEPES and 0.1 mM EDTA (pH 7.4, buffer 2). The resulting pellet was resuspended in buffer 2 and protein concentration was measured (BCA protein Assay, Pierce). The homogenate was kept cold during the whole procedure. The membranes were kept at −80° C. until use. The assay was performed in a 384 well Optiplate (PerkinElmer) in a total volume of 40 ul. Membranes were mixed with SPA beads. Final concentration of membranes 35 ng/μL final and SPA beads was 0.05 mg/well. Test-compounds were dissolved in DMSO and further diluted in assay buffer (50 mM Hepes, pH 7.4, 1 mM CaCl2, 5 mM MgCl₂, 0.1% OA and 0.02% Tween20). […] The final mixture was incubated with shaking at 400 rpm for 120 min at 25° C. prior to centrifugation (1500 rpm, 10 min). Samples were analyzed on TopCounter™ (Packard). The IC₅₀ was calculated using (one site binding competition analysis) GraphPad Prism5 as a measure of receptor affinity.
Membranes were prepared in the following way; the cells were rinsed with PBS and incubated with Versene for approximately 5 min before harvesting. The cells were flushed with PBS and the cell-suspension was centrifuged for 5 min at 1000 rpm. Cells were homogenized (Ultrathurrax) in a buffer containing 20 mM Na-HEPES and 10 mM EDTA (pH 7.4) and centrifuged at 20.000 rpm for 15 min. The resulting pellet was resuspended, homogenized and centrifuged (20.000 rpm, 15 min) in a buffer containing 20 mM Na-HEPES and 0.1 mM EDTA (pH 7.4, buffer 2). The resulting pellet was resuspended in buffer 2 and protein concentration was measured (BCA protein Assay, Pierce). The homogenate was kept cold during the whole procedure. The membranes were kept at −80° C. until use. Assay was performed in a 384 well Optiplate (PerkinElmer) in a total volume of 40 ul. Membranes were mixed with SPA beads.

[3] = biological target: T3, rat amylin receptor (rat calcitonin receptor + rat RAMP 3) (rat, UniProt P32214 25-516; Q9JJ73 23-147); assay: SPA competition with 125I-rat amylin on membranes of BHK tk'ts 13 cells with rat calcitonin receptor + rat RAMP3 (Assay VI)
T3 construct: whole, on cells; Membranes of transiently transfected BHK tk'ts 13 cells; also called rAmylin-R; rat amylin 3(a) receptor
T3 sequence (looked up) 1: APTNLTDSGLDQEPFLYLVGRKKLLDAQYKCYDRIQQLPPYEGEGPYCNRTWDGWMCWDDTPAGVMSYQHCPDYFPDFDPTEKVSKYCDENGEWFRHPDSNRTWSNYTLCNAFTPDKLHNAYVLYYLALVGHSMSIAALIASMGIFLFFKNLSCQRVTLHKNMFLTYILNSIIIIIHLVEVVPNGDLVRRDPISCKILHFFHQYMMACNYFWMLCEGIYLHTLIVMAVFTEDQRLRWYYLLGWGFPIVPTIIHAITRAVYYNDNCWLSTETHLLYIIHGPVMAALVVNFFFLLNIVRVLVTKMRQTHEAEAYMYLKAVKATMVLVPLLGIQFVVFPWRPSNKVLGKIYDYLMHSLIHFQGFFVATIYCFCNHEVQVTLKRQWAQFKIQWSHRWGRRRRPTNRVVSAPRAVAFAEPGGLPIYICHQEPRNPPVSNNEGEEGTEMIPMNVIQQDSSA
T3 sequence (looked up) 2: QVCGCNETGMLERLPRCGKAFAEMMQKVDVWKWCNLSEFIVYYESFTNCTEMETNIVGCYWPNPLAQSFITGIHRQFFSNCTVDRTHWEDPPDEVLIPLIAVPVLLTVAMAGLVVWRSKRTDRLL

[4] = biological target: T1, rat calcitonin receptor; assay: SPA competition with 125I-calcitonin on membranes of BHK tk'ts 13 cells with rat calcitonin receptor (Assay VIII)

Binder | Ratio rCT/rAmylin binding [1] | Ratio hCT/hAmylin binding [2] | IC50 [3] [nM] | IC50 [4] [nM]
K([γGlu-γGlu-C20 diacid])CNTATCATQRLAEFLRHSSPNFGAIPSSTNVGPETY-NH2 (disulfide 2-7 (inferred), Synthetic acylated analogue of human amylin) | 88.5 | 17.6 | 0.182 | 16.1
K([AEEA-C20 diacid])CNTATCATQRLANFLRHSSPNFGAIPSSTNVGHNTY-NH2 (disulfide 2-7; N-terminus assumed; SMILES CC[C@H](C)[C@H](NC(=O)[C@H](C)NC(=O)CNC(=O)[C@H](Cc1ccccc1)NC(=O)[C@H](CC(N)=O)NC(=O)[C@@H]1CCCN1C(=O)[C@H](CO)NC(=O)[C@H](CO)NC(=O)[C@H](Cc1c[nH]cn1)NC(=O)[C@H](CCCNC(=N)N)NC(=O)[C@H](CC(C)C)NC(=O)[C@H](Cc1ccccc1)NC(=O)[C@H](CC(N)=O)NC(=O)[C@H](C)NC(=O)[C@H](CC(C)C)NC(=O)[C@H](CCCNC(=N)N)NC(=O)[C@H](CCC(N)=O)NC(=O)[C@@H](NC(=O)[C@H](C)NC(=O)[C@@H]1CSSC[C@H](NC(=O)[C@@H](N)CCCCNC(=O)COCCOCCNC(=O)CCCCCCCCCCCCCCCCCCC(=O)O)C(=O)N[C@@H](CC(N)=O)C(=O)N[C@@H]([C@@H](C)O)C(=O)N[C@@H](C)C(=O)N[C@@H]([C@@H](C)O)C(=O)N1)[C@@H](C)O)C(=O)N1CCC[C@H]1C(=O)N[C@@H](CO)C(=O)N[C@@H](CO)C(=O)N[C@H](C(=O)N[C@@H](CC(N)=O)C(=O)N[C@H](C(=O)NCC(=O)N[C@@H](Cc1c[nH]cn1)C(=O)N[C@@H](CC(N)=O)C(=O)N[C@H](C(=O)N[C@@H](Cc1ccc(O)cc1)C(N)=O)[C@@H](C)O)C(C)C)[C@@H](C)O, Synthetic acylated analogue of human amylin; also called compound 91) [N^ε1-[2-[2-[2-(19-carboxynonadecanoylamino)ethoxy]ethoxy]acetyl]-[Arg17,Pro21,Pro27,His34]-h-amylin] | 76.3 | 101 | 0.386 | 29.4
